Test results reported in EP4714976A1 (Sunshine Lake Pharma Co., Ltd., dated 2026).
Changes are numbered by the printed parent chain.

B1: 3H9-VH1-VL1 (antibody, human IgG1, kappa, V domains shown)
VH: QVQLVQSGAEVKKPGASVKVSCKASGYTFTFYNMHWVRQAPGQGLEWIGLIYPDNGDTSYNQKFKGRATLTADTSTSTVYMELSSLRSEDTAVYYCARGGLDYWGQGTTVTVSS
VL: DIQMTQSPSSLSASVGDRVTITCRASENIYSNLAWYQQKPGKSPKLLIYAATNLADGVPSRFSGSGSGTDYTLTISSLQPEDFATYYCQHFWGTPYTFGGGTKVEIKR
notes: humanized IgG1
B2: 3H9-VH2-VL3 (antibody, human IgG1, kappa)
heavy: not shown
light: DIQMTQSPSSLSASVGDRVTITCRASENIYSNLAWYQQKPGKSPKLLVYAATNLADGVPSRFSGSGSGTDYTLTISSLQPEDFATYYCQHFWGTPYTFGGGTKLEIKRTVAAPSVFIFPPSDEQLKSGTASVVCLLNNFYPREAKVQWKVDNALQSGNSQESVTEQDSKDSTYSLSSTLTLSKADYEKHKVYACEVTHQGLSSPVTKSFNRGEC
notes: humanized IgG1
B3: 3H9-VH0-VL0 (antibody, human IgG1, kappa, V domains shown)
VH: B1 VH with I48M
VL: B1 VL with S43A, Y71F
notes: humanized IgG1
B4: 3H9-VH2-VL2 (antibody, human IgG1, kappa)
heavy: not shown
light: B2 light with L104V
notes: humanized IgG1
B5: 3H9-VH1-VL3 (antibody, human IgG1, kappa)
heavy: not shown
light: B2 light
notes: humanized IgG1
B6: 3H9-VH2-VL1 (antibody, human IgG1, kappa, V domains shown)
VH: B1 VH with T30S
VL: B1 VL
notes: humanized IgG1
B7: 3H9-VH2-VL0 (antibody, human IgG1, kappa, V domains shown)
VH: B1 VH with T30S
VL: B1 VL with S43A, Y71F
notes: humanized IgG1
B8: 3H9-VH0-VL2 (antibody, human IgG1, kappa)
heavy: not shown
light: B2 light with L104V
notes: humanized IgG1
B9: 3H9-VH3-VL2 (antibody, human IgG1, kappa)
heavy: not shown
light: B2 light with L104V
notes: humanized IgG1
B10: 3H9-VH3-VL1 (antibody, human IgG1, kappa, V domains shown)
VH: B1 VH with T30S, R38K
VL: B1 VL
notes: humanized IgG1
B11: 3H9-VH1-VL0 (antibody, human IgG1, kappa, V domains shown)
VH: B1 VH
VL: B1 VL with S43A, Y71F
notes: humanized IgG1
B12: 3H9-VH1-VL2 (antibody, human IgG1, kappa)
heavy: not shown
light: B2 light with L104V
notes: humanized IgG1
B13: 3H9-VH3-VL0 (antibody, human IgG1, kappa, V domains shown)
VH: B1 VH with T30S, R38K
VL: B1 VL with S43A, Y71F
notes: humanized IgG1
B14: 3H9-VH3-VL3 (antibody, human IgG1, kappa)
heavy: not shown
light: B2 light
notes: humanized IgG1
B15: 3H9-VH0-VL3 (antibody, human IgG1, kappa)
heavy: not shown
light: B2 light
notes: humanized IgG1
B16: 3H9-VH0-VL1 (antibody, human IgG1, kappa, V domains shown)
VH: B1 VH with I48M
VL: B1 VL
notes: humanized IgG1
B17: 3C7-VH2-VL2 (antibody, human IgG1, kappa, V domains shown)
VH: QVQLVQSGAEVKKPGASVKVSCKASGYIFRNYYIHWVRQAPGQGLEWMGAIYPDNGDTSYNQRFKVRATLTADTSTSTVYMELSSLRSEDTAVYYCARAFTYWGQGTTVTVSS
VL: DIQMTQSPSSLSASVGDRVTITCGASENIYGALNWYQRKPGKAPKLLIYGATNLADGVPSRFSGSGSGTDYTLTISSLQPEDFATYYCQNVLSTPYTFGGGTKLEIKR
notes: humanized IgG1
B18: 3C7-VH1-VL2 (antibody, human IgG1, kappa, V domains shown)
VH: B17 VH with R30T
VL: B17 VL
notes: humanized IgG1
B19: 3C7-VH1-VL3 (antibody, human IgG1, kappa, V domains shown)
VH: B17 VH with R30T
VL: B17 VL with A43S, F83V
notes: humanized IgG1
B20: 3C7-VH0-VL0 (antibody, human IgG1, kappa, V domains shown)
VH: B17 VH with I28T, R30T
VL: B17 VL with G24R, R38Q, Y71F, L104V
notes: humanized IgG1
B21: 3C7-VH1-VL0 (antibody, human IgG1, kappa, V domains shown)
VH: B17 VH with R30T
VL: B17 VL with G24R, R38Q, Y71F, L104V
notes: humanized IgG1
B22: 3C7-VH0-VL1 (antibody, human IgG1, kappa, V domains shown)
VH: B17 VH with I28T, R30T
VL: B17 VL with R38Q, F83V, L104V
notes: humanized IgG1
B23: 3C7-VH0-VL3 (antibody, human IgG1, kappa, V domains shown)
VH: B17 VH with I28T, R30T
VL: B17 VL with A43S, F83V
notes: humanized IgG1
B24: 3C7-VH0-VL2 (antibody, human IgG1, kappa, V domains shown)
VH: B17 VH with I28T, R30T
VL: B17 VL
notes: humanized IgG1
B25: 3C7-VH1-VL1 (antibody, human IgG1, kappa, V domains shown)
VH: B17 VH with R30T
VL: B17 VL with R38Q, F83V, L104V
notes: humanized IgG1
B26: 3C7-VH2-VL0 (antibody, human IgG1, kappa, V domains shown)
VH: B17 VH
VL: B17 VL with G24R, R38Q, Y71F, L104V
notes: humanized IgG1
B27: FR21 (antibody, human IgG1, kappa, V domains shown)
VH: QVQLVQSGAEVKKPGSSVKVSCKASGYIFTTYNVHWVRQAPGQGLEWIGSIYPDNGDTSYNQNFKGRATITADKSTSTAYMELSSLRSEDTAVYYCARGDFAYWGQGTLVTVSS
VL: DIQMTQSPSSLSASVGDRVTITCKASQGVSNDVAWYQQKPGKAPKLLIYSASYRYTGVPSRFSGSGSGTDFTFTISSLQPEDIATYYCQQHSTTPYTFGQGTKLEIKR
notes: also called positive control antibody FR21; positive monoclonal antibody FR21

Molecular target: T1, human FGFR2b (Kaixia Biotechnology, catalog number FGR-HM1BB) (human, UniProt P21802-3 22-378)
T1 construct: extracellular domain; bought; also called hFGFR2b; human FGFR2b protein
T1 sequence (P21802 other isoform, or with tags, fused parts or gaps): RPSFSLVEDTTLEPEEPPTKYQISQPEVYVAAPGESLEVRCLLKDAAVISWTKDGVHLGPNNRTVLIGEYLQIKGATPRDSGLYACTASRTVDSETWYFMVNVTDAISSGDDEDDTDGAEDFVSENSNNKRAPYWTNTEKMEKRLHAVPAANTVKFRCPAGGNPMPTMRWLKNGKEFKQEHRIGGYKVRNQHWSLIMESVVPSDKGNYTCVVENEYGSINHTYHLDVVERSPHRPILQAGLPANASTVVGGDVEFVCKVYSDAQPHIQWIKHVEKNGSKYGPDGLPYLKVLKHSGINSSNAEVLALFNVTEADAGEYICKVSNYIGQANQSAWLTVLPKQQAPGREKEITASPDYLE
Experiment: BLI, antibody on AHC2 sensor

Row | Kd | koff | kon | Binder
1 | 8.5 nM | 0.00241 s⁻¹ | 284000 M⁻¹ s⁻¹ | B1
2 | 1.37 nM | 0.000788 s⁻¹ | 575000 M⁻¹ s⁻¹ | B2
3 | 6.51 nM | 0.00301 s⁻¹ | 463000 M⁻¹ s⁻¹ | B3
4 | 1.9 nM | 0.000784 s⁻¹ | 412000 M⁻¹ s⁻¹ | B4
5 | 5.05 nM | 0.00254 s⁻¹ | 503000 M⁻¹ s⁻¹ | B5
6 | 1.32 nM | 0.000752 s⁻¹ | 570000 M⁻¹ s⁻¹ | B6
7 | 2.64 nM | 0.00125 s⁻¹ | 473000 M⁻¹ s⁻¹ | B7
8 | 5.06 nM | 0.00186 s⁻¹ | 367000 M⁻¹ s⁻¹ | B8
9 | 0.709 nM | 0.000373 s⁻¹ | 526000 M⁻¹ s⁻¹ | B9
10 | 0.614 nM | 0.000324 s⁻¹ | 527000 M⁻¹ s⁻¹ | B10
11 | 18.5 nM | 0.00433 s⁻¹ | 234000 M⁻¹ s⁻¹ | B11
12 | 5.37 nM | 0.00232 s⁻¹ | 432000 M⁻¹ s⁻¹ | B12
13 | 3.13 nM | 0.000935 s⁻¹ | 299000 M⁻¹ s⁻¹ | B13
14 | 0.743 nM | 0.000399 s⁻¹ | 536000 M⁻¹ s⁻¹ | B14
15 | 5.09 nM | 0.00186 s⁻¹ | 366000 M⁻¹ s⁻¹ | B15
16 | 3.55 nM | 0.00179 s⁻¹ | 505000 M⁻¹ s⁻¹ | B16
17 | 2.03 nM | 0.000884 s⁻¹ | 435000 M⁻¹ s⁻¹ | B17
18 | 2.71 nM | 0.00115 s⁻¹ | 425000 M⁻¹ s⁻¹ | B18
19 | 3.04 nM | 0.00122 s⁻¹ | 403000 M⁻¹ s⁻¹ | B19
20 | 10.4 nM | 0.00305 s⁻¹ | 293000 M⁻¹ s⁻¹ | B20
21 | 1.89 nM | 0.000955 s⁻¹ | 504000 M⁻¹ s⁻¹ | B21
22 | 14 nM | 0.00315 s⁻¹ | 224000 M⁻¹ s⁻¹ | B22
23 | 13.6 nM | 0.00323 s⁻¹ | 238000 M⁻¹ s⁻¹ | B23
24 | 11.6 nM | 0.00313 s⁻¹ | 269000 M⁻¹ s⁻¹ | B24
25 | 3.24 nM | 0.00131 s⁻¹ | 405000 M⁻¹ s⁻¹ | B25
26 | 1.63 nM | 0.000829 s⁻¹ | 509000 M⁻¹ s⁻¹ | B26
27 | 1.52 nM | 0.000424 s⁻¹ | 279000 M⁻¹ s⁻¹ | B27

Molecular target: T2, FGFR2b on KATO III cells (human, UniProt P21802-3 22-822)
T2 construct: whole, on cells; also called KATO III cells that overexpress FGFR2b
T2 sequence (P21802 other isoform, or with tags, fused parts or gaps): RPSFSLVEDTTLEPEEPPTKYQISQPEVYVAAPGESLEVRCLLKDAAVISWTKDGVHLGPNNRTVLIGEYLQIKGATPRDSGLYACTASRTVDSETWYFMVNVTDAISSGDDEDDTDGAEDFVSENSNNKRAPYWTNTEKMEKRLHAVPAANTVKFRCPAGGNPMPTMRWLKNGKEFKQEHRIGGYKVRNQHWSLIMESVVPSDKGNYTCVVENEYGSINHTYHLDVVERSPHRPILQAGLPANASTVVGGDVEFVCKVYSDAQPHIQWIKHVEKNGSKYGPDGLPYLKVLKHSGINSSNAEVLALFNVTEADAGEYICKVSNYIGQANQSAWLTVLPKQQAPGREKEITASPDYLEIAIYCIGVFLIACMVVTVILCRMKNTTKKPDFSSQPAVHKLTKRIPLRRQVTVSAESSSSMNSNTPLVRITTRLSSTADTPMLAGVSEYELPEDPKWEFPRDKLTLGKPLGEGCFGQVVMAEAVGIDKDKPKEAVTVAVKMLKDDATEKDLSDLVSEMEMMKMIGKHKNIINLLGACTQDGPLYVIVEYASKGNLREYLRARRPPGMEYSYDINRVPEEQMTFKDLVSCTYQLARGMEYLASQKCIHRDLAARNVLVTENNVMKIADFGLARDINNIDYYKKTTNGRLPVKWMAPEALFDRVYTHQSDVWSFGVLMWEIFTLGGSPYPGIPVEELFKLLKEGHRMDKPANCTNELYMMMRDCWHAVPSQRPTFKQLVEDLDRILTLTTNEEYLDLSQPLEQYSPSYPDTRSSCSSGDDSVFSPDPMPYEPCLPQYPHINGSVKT
Experiment: flow cytometry, KATO III cells

Row | EC50 | Binder
28 | 0.379 µg/mL | B1
29 | 0.212 µg/mL | B2
30 | 0.336 µg/mL | B3
31 | 0.337 µg/mL | B4
32 | 0.215 µg/mL | B5
33 | 0.309 µg/mL | B6
34 | 0.332 µg/mL | B7
35 | 0.357 µg/mL | B8
36 | 0.231 µg/mL | B9
37 | 0.357 µg/mL | B10
38 | 0.378 µg/mL | B11
39 | 0.0909 µg/mL | B12
40 | 0.437 µg/mL | B13
41 | 0.554 µg/mL | B14
42 | 0.469 µg/mL | B15
43 | 0.18 µg/mL | B16
44 | 0.559 µg/mL | B17
45 | 0.601 µg/mL | B18
46 | 0.565 µg/mL | B19
47 | 0.384 µg/mL | B20
48 | 0.396 µg/mL | B21
49 | 0.64 µg/mL | B22
50 | 0.443 µg/mL | B23
51 | 0.528 µg/mL | B24
52 | 0.506 µg/mL | B25
53 | 0.436 µg/mL | B26
54 | 0.586 µg/mL | B27
